Measurements as given in PMC10148413 (2023).

B1: Caf1 (protein)
chain: MVDRSDNAAESFDDAVEERVINEEYKIWKKNTPFLYDLVMTHALEWPSLTAQWLPDVTKQDGKDYSVHRLILGTHTSDEQNHLLIASVQLPSEDAQFDGSHYDNEKGEFGGFGSVCGKIEIEIKINHEGEVNRARYMPQNACVIATKTPSSDVLVFDYTKHPSKPEPSGECQPDLRLRGHQKEGYGLSWNPNLNGYLLSASDDHTICLWDINATPKEHRVIDAKNIFTGHTAVVEDVAWHLLHESLFGSVADDQKLMIWDTRNNNTSKPSHTVDAHTAEVNCLSFNPYSEFILATGSADKTVALWDLRNLKLKLHSFESHKDEIFQVQWSPHNETILASSGTDRRLHVWDLSKIGEEQSTEDAEDGPPELLFIHGGHTAKISDFSWNPNEPWIICSVSEDNIMQVWQMAENVYNDEEPEIPASELETNTA
B2: Caf1 (protein)
chain: B1 chain
modifications: H3K4me3

Key:
histone H3 (unmodified) = histone H3 (unmodified) (Drosophila melanogaster, UniProt P02299)
[1] = molecular target: histone H3 (K4 trimethylated) (Drosophila melanogaster, UniProt P02299)

Row | Binder | Kd (histone H3 (unmodified)) [nM] | Kd [1] [nM]
1 | B1 | ~600 | 
2 | B2 |  | > 70000
